B1: Drebrin (Homo sapiens), Q16643 (parent)
chain: MAGVSFSGHRLELLAAYEEVIREESAADWALYTYEDGSDDLKLAASGEGGLQELSGHFENQKVMYGFCSVKDSQAALPKYVLINWVGEDVPDARKCACASHVAKVAEFFQGVDVIVNASSVEDIDAGAIGQRLSNGLARLSSPVLHRLRLREDENAEPVGTTYQKTDAAVEMKRINREQFWEQAKKEEELRKEEERKKALDERLRFEQERMEQERQEQEERERRYREREQQIEEHRRKQQTLEAEEAKRRLKEQSIFGDHRDEEEETHMKKSESEVEEAAAIIAQRPDNPREFFKQQERVASASAGSCDVPSPFNHRPGSHLDSHRRMAPTPIPTRSPSDSSTASTPVAEQIERALDEVTSSQPPPLPPPPPPAQETQEPSPILDSEETRAAAPQAWAGPMEEPPQAQAPPRGPGSPAEDLMFMESAEQAVLAAPVEPATADATEIHDAADTIETDTATADTTVANNVPPAATSLIDLWPGNGEGASTLQGEPRAPTPPSGTEVTLAEVPLLDEVAPEPLLPAGEGCATLLNFDELPEPPATFCDPEEVEGESLAAPQTPTLPSALEELEQEQEPEPHLLTNGETTQKEGTQASEGYFSQSQEEEFAQSEELCAKAPPPVFYNKPPEIDITCWDADPVPEEEEGFEGGD
partner: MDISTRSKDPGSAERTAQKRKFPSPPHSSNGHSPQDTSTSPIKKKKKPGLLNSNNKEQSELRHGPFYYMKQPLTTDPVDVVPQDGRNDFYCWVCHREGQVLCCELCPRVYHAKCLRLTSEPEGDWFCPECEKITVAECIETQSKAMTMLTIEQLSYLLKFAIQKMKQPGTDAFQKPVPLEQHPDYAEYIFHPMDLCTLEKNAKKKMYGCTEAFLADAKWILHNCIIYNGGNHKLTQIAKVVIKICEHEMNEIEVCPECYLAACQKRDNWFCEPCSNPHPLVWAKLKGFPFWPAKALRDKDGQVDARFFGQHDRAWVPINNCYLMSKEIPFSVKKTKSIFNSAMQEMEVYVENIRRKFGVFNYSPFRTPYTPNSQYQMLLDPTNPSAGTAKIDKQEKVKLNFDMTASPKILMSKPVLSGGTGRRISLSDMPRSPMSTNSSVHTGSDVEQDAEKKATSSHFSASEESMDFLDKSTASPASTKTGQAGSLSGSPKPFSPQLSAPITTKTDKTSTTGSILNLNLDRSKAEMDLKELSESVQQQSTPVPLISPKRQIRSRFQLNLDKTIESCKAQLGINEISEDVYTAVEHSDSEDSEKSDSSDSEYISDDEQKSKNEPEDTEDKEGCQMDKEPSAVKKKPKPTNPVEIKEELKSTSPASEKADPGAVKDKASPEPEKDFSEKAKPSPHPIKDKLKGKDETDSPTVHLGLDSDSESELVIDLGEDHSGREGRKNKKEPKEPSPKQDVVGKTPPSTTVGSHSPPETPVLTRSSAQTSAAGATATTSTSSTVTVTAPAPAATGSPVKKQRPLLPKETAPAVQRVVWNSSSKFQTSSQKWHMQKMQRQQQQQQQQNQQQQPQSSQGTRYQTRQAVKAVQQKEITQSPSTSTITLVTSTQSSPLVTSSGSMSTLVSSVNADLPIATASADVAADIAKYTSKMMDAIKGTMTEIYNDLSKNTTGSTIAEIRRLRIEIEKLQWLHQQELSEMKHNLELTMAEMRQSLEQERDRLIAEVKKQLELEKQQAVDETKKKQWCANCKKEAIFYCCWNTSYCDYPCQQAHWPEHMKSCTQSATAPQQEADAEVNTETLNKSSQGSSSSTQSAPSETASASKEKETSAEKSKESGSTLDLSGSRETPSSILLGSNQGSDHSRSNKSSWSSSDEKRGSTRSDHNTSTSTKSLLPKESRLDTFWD
B2: MYND-type zinc finger-containing chromatin reader ZMYND8 (Homo sapiens), Q9ULU4 (parent)
chain: B1 partner
partner: B1 chain

Variants of: B1
Conditions: with zmyd8_human ZMYND8, Q9ULU4

Row | Variant | effect of a mutation on the interaction
1 | R10G | disrupting interaction strength

Variants of: B2
Conditions: with dreb_human DBN1, Q16643

Row | Variant | effect of a mutation on the interaction
2 | H311A | disrupting interaction strength

From IntAct's records for PubMed 28966017
